Results published in patent publication US20220153873A1 (ICAHN SCHOOL OF MEDICINE AT MOUNT SINAI, published 2022).
Where two headings read alike, the source gives them in different places.

Tests used:
[1] = target: recombinant neuraminidase (rNA) of B/Malaysia/2506/04 (influenza B virus B/Malaysia/2506/04)
[2] = target: recombinant neuraminidase (rNA) of B/Florida/04/06 (influenza B virus B/Florida/04/06); assay: ELISA, rNA B/Florida/4/2006 coated at 2 ug/mL
[3] = target: recombinant neuraminidase (rNA) of B/Florida/04/06 (influenza B virus B/Florida/04/06)
[4] = target: neuraminidase of B/Lee/40 (purified whole virus) (influenza B virus B/Lee/40, UniProt P03474 1-466); assay: ELISA on purified whole virus
[5] = target: recombinant neuraminidase (rNA) of B/Florida/04/06 (influenza B virus B/Florida/04/06); assay: ELISA, biotinylated 1F2 on rNA B/Florida/04/2006, no competitor
[6] = target: recombinant neuraminidase (rNA) of B/Florida/04/06 (influenza B virus B/Florida/04/06); assay: ELISA, biotinylated 4B2 on rNA B/Florida/04/2006, no competitor
[7] = target: neuraminidase of wild type B/Malaysia/2506/04 virus (on virus and on infected MDCK cells) (influenza B virus B/Malaysia/2506/04); assay: cell-based or functional assay
[8] = target: recombinant neuraminidase (rNA) of B/Florida/04/06 (influenza B virus B/Florida/04/06); assay: ELISA, biotinylated 3G1 on rNA B/Florida/04/2006, no competitor
[9] = target: recombinant neuraminidase (rNA) of B/Malaysia/2506/04 (influenza B virus B/Malaysia/2506/04); assay: ELISA, rNA B/Malaysia/2506/04 coated at 2 ug/mL
[10] = target: recombinant neuraminidase (rNA) of B/Florida/04/06 (influenza B virus B/Florida/04/06); remark: listed apart in the source

Chain of neuraminidase of B/Lee/40 (purified whole virus) (P03474 whole entry): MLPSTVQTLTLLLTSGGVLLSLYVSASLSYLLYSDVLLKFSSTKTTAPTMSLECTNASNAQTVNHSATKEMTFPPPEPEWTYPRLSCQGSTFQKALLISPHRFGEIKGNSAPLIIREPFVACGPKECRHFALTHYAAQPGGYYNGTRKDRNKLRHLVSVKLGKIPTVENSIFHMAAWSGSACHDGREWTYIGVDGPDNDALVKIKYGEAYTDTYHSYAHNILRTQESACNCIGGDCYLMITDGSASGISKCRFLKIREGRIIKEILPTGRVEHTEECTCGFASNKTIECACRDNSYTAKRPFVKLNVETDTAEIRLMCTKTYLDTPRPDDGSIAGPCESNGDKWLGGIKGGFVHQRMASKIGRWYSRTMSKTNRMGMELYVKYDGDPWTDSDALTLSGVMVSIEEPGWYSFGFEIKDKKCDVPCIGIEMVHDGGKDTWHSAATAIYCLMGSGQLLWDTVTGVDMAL

B1: recombinant 1F2 IgG2a (antibody, V domains shown)
VH: QVHLQQSGPEVARPGASVKLSCKASGYTFTDYYLNWVKQRPRQGLEWIGQIHPGSTNTYYNEKFKGKATLTADKSSSTAYMQLSSLTSEDSAVYFCARSLGDGYYVYAMDYWGQGTAVTVSS
VL: DIVMTQSQKFMSTSVGDRVSVTCKASQNVVTNVVWYQQKPGQSPKPLIYSASYRYSGVPDRFTGSGSGTDFTLTISNVQSEDLAEYCCQQYHSYPFTFGSGTKLEVK
Q: How did the Kd [1] turn out when B1 was run?
A: 0.68 nM

Q: What about the EC50 (read off the curve) [2] of the same binder?
A: 0.03 µg/mL

B2: recombinant 1F2 IgG2b (antibody, V domains shown)
VH: B1 VH
VL: B1 VL
Q: For B2, which Kd [1] is on record?
A: 1.16 nM

Q: And the EC50 (read off the curve) [2]?
A: 0.03 µg/mL

B3: 1F2 antibody (murine IgG2a, hybridoma-produced) (antibody, V domains shown)
VH: B1 VH
VL: B1 VL
notes: also called mAb 1F2; IF2
Q: For B3, which EC50 (read off the curve) [3] is on record?
A: 0.2 µg/mL

Q: Does B3 bind [4]?
A: binds

Q: And the EC50 (read off the curve) [2]?
A: 0.03 µg/mL

Q: And the EC50 (read off the curve) [5]?
A: 0.02 µg/mL

B4: recombinant 1F2 monomeric IgA (antibody, V domains shown)
VH: B1 VH
VL: B1 VL
Q: With B4 as the binder, how does the Kd [1] read?
A: 0.958 nM

B5: recombinant 1F2 IgG1 (antibody, V domains shown)
VH: B1 VH
VL: B1 VL
Q: Which Kd [1] does the source give for B5 here?
A: 1.05 nM

Q: And the EC50 (read off the curve) [2]?
A: 0.05 µg/mL

B6: 4B2 antibody (murine IgG2a, hybridoma-produced) (antibody, V domains shown)
VH: QIQLVQSGPELKKPGETVKISCKASGFTFTDYPMHWVKQAPGKSLKWMGWINTETEEPTYSDDFKGRFALSLETSASTTYLQINNLKNEDTATYFCARSGYYYGSTYAWFGYWGQGTLVTVSA
VL: DVVMTQIPLSLPVSLGDQASISCRSSQSLIHTNGDTFLHWYLQKPGQSPKLLIYKVSNRFSGVPDRFTGGGSGTDFTLKISRVEAEDLGIYFCSQSALFPYTFGGGTNLEIK
notes: also called mAb 4B2
Q: Does B6 bind [4]?
A: binds

Q: What about the EC50 (read off the curve) [6] of the same binder?
A: 0.1 µg/mL

B7: 3G1 antibody (murine IgG2a, hybridoma-produced) (antibody, V domains shown)
VH: QVQLQQSGAELMKPGASVKISCKATGYKFTSYWIGWVKQRPGHGLEWCGEIFPGSGSINYNEKFKGKATFTADTSSNTAYLQLTSLTSEDSAVYYCARGEDYYGSSYGAMDYWGQGTSLTVSS
VL: DVQITQSPSYLAASPGETITINCRASKSISKYVAWYQEKPGRTNKVLIYSGSILSFGNPSRFSGSGSGTDFTLTISSLEPEDFAMYYCQQHNEYPWTFGGGTKLEIK
notes: also called mAb 3G1
Q: With B7 as the binder, how does the NI activity, NA-Star assay (percent inhibition) [7] read?
A: 100%

Q: Does B7 bind [4]?
A: binds

Q: What about the EC50 (read off the curve) [8] of the same binder?
A: 0.07 µg/mL

B8: recombinant 4F11 IgG2b (antibody, V domains shown)
VH: DVKLVESGGDLVKPGGSLKLSCAASGFTFSAYSMSWVRQTPERRLEWVATINTGGSFTYYPDSVKGRFTISRDNAKNTLYLQMSSLKSEDTAMYFCTRVSDYGNSAYFPYWGQGTLVIVSA
VL: QVVLTQSPALISASPGEKVTMTCSASSNVNYMSWYQQRPRSSPKPWIYLTSKLASGVPPRFSGSGSGTSYSLTISSMEAEDVATYYCQQWSSDPQTFGGGTKVEIK
Q: Which results are given for B8?
A: Kd [1]: 0.00298 nM; EC50 (read off the curve) [9]: 0.07 µg/mL

B9: recombinant 4F11 monomeric IgA (antibody, V domains shown)
VH: B8 VH
VL: B8 VL
Q: B9 was tested. Which Kd [1] did it give?
A: 0.00472 nM

B10: recombinant 4F11 IgG1 (antibody, V domains shown)
VH: B8 VH
VL: B8 VL
Q: For B10, which Kd [1] is on record?
A: 0.00891 nM

B11: 4F11 antibody (murine IgG2b, hybridoma-produced) (antibody, V domains shown)
VH: B8 VH
VL: B8 VL
notes: also called mAb 4F11; 4F11 Hybridoma
Q: Does B11 bind [4]?
A: binds

Q: And the EC50 (read off the curve) [9]?
A: 0.06 µg/mL

B12: recombinant 4F11 IgG2a (antibody, V domains shown)
VH: B8 VH
VL: B8 VL
Q: With B12 as the binder, how does the Kd [1] read?
A: 0.00336 nM

B13: 1F4 antibody (murine IgG2a, hybridoma-produced) (antibody, V domains shown)
VH: QVHLQQSGSELRSPGSSVKLSCKDFDSEVFPIVYMRWIRQKPGHGFEWIGDILPSFGRTIYGEKFEDKATLDADTVSNTAYLELNSLTSEDSAIYYCARGDHGNWLAYWGQGTLVTVSA
VL: DIVMTQSHKFMSTSVGDRVTITCKASQDVSTAVAWYQQKPGQSPKLLIYWASTRHTGVPNRFTGIISGTDYTLTISSVQAEDLALYYCQQHYSAPWTFGGGTKLEIK
notes: also called mAb 1F4; IF4
Q: Which EC50 (read off the curve) [10] does the source give for B13 here?
A: 0.04 µg/mL

Q: Does B13 bind [4]?
A: binds
